Literature values as cited in publication PMC8070608.
Like-named read-outs stand apart in the source and are kept apart here.

What was measured:
tPA (Homo sapiens) [1] = biological target: tPA (Homo sapiens) (UniProt P00750)
[2] = biological target: plasminogen (Homo sapiens) (UniProt P00747)
tPA (Homo sapiens) [3] = biological target: tPA (Homo sapiens) (UniProt P00750); remark: listed apart in the source

Chain of UniProt P00750 (P00750 36-562): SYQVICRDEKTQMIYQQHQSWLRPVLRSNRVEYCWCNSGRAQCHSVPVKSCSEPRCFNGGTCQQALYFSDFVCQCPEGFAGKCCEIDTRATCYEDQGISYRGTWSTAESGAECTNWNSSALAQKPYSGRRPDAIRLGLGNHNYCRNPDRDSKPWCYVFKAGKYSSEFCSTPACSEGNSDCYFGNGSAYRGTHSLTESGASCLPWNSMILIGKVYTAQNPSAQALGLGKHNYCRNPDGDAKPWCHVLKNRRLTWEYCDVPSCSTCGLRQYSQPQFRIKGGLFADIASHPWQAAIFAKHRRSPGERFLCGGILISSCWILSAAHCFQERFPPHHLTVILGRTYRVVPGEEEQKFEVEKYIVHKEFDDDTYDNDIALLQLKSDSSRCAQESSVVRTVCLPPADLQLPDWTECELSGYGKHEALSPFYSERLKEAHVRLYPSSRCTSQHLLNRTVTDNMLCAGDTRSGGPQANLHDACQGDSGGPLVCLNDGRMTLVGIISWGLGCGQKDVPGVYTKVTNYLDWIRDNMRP
Chain of UniProt P00747 (P00747 20-810): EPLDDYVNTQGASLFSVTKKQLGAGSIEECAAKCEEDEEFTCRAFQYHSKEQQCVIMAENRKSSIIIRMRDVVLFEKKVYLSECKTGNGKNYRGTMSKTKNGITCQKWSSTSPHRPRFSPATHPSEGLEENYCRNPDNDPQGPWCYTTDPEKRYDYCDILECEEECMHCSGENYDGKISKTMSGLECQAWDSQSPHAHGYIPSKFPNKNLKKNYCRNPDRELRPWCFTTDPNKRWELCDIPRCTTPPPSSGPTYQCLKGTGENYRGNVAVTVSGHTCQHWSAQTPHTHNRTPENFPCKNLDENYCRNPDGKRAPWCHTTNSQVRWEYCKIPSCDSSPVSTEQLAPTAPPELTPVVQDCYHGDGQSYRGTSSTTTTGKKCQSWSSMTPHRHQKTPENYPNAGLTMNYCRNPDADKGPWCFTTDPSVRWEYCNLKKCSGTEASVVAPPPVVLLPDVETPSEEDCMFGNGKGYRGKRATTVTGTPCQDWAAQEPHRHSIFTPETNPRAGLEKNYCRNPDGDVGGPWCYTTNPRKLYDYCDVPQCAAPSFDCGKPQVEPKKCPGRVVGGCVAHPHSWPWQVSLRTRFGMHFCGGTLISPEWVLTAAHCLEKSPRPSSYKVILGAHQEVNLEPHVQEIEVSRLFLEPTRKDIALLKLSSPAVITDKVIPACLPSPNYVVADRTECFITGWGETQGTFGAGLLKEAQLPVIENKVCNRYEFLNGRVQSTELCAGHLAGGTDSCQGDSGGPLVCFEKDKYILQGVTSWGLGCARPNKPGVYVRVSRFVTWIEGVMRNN

| Kd (tPA (Homo sapiens) [1]) | Kd [2] | Kd (tPA (Homo sapiens) [3]) | Substance |
| --- | --- | --- | --- |
| 680 nM | 110 nM | – | p11 (from UniProt P60903) |
| – | – | 48 nM | p36 (annexin A2) (from UniProt P07355) |
